Positions count from the first letter of the chain named. In names and notes the source's numbering stands.

For experiment [1], the target named is human PD-1 (human) (UniProt Q15116).
The target is the same in experiment [2]. In words: flow cytometry, Jurkat/PD-1 cells, 50 nM. Background: In flow cytometry, cells or beads pass a laser one at a time.
Another experiment deals with human CTLA-4 (human). In words: flow cytometry, CHO/CTLA-4 cells, 100 nM, anti-Flag.
Experiment [3] addresses human PD-1 (human) (UniProt Q15116). In words: flow cytometry, CHO/PD-1 cells, 100 nM, anti-Flag.
The target of a further experiment is CD28 (human) (UniProt P10747). In words: flow cytometry, Jurkat cells (endogenous CD28), 100 nM, anti-Flag.
Another experiment has as its target T1, CD96 (human) (UniProt P40200).
T1 sequence: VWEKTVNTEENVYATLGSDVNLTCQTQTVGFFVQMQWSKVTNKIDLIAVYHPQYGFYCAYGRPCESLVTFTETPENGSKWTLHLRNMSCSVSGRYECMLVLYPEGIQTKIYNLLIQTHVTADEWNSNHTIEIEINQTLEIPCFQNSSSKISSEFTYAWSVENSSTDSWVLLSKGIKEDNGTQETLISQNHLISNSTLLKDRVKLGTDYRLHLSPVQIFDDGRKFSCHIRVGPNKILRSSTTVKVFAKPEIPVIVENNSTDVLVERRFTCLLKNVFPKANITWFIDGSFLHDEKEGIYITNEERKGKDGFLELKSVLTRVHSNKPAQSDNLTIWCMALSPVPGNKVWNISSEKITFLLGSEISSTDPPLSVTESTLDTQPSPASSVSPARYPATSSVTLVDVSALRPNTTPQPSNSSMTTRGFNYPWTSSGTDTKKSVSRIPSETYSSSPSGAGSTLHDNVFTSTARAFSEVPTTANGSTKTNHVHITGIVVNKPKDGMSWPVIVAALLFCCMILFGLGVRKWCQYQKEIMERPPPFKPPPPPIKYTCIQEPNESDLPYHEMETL
In words: flow cytometry, transfected HEK293 cells.

In another experiment the target is T2, CD226 (human) (UniProt Q15762).
T2 sequence: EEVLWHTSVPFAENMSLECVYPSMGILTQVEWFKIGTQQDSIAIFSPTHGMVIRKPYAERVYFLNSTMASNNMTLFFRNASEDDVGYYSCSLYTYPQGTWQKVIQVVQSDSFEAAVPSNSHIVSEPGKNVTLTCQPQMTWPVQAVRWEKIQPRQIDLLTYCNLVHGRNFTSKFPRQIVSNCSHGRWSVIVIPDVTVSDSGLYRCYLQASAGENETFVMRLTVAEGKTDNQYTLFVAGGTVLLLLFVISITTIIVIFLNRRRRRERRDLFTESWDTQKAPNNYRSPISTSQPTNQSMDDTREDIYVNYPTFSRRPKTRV
In words: flow cytometry, transfected HEK293 cells.

The target of experiment [4] is human PD-1 (human) (UniProt Q15116). In words: flow cytometry, Jurkat/PD-1 cells.
The target of a further experiment is PD-L1 (human). In words: flow cytometry on HEK293 cells transfected with PD-L1.
The next experiment addresses CTLA-4 (human). In words: flow cytometry on HEK293 cells transfected with CTLA4.
Another experiment has as its target CD80 (human). In words: flow cytometry, cells expressing CD80, 20 nM.

human PD-1 (human), sequence (Q15116 25-288): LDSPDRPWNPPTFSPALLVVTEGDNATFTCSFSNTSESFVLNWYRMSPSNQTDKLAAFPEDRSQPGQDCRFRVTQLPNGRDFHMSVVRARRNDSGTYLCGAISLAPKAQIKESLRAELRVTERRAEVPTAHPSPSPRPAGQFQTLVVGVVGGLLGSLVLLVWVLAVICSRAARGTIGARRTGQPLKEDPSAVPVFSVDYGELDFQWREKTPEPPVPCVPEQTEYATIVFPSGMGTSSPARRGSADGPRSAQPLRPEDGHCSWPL
CD80 (human), sequence (chain, as listed by the source): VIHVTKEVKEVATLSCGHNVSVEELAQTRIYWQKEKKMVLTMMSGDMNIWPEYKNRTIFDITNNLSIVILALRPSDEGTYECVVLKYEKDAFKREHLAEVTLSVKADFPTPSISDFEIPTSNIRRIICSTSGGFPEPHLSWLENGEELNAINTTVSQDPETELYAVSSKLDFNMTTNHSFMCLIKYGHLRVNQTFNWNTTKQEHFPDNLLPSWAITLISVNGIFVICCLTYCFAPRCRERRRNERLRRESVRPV
PD-L1 (human), sequence (chain, as listed by the source): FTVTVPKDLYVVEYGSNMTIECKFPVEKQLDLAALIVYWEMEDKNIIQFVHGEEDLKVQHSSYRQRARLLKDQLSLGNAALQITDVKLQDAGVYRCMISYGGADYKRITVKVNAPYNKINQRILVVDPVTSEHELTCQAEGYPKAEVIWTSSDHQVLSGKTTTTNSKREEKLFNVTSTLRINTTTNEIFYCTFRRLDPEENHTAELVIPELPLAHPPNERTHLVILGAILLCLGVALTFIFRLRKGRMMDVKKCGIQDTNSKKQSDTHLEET
human CTLA-4 (human), sequence (chain, as listed by the source): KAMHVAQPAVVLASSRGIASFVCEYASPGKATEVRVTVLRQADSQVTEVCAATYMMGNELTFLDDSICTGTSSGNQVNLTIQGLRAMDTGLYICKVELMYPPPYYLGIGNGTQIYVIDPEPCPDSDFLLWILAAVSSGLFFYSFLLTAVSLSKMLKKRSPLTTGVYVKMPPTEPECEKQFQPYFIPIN

B1: Full length ECD of PD-L2, Fc fusion (Fc fusion)
chain: LFTVTVPKELYIIEHGSNVTLECNFDTGSHVNLGAITASLQKVENDTSPHRERATLLEEQLPLGKASFHIPQVQVRDEGQYQCIIIYGVAWDYKYLTLKVKASYRKINTHILKVPETDEVELTCQATGYPLAEVSWPNVSVPANTSHSRTPEGLYQVTSVLRLKPPPGRNFSCVFWNTHVRELTLASIDLQSQMEPRTHPT
B1 returned an IFN gamma levels pg/mL (MLR) with human PD-1 (human) [1] of 1170 pg/mL. This molecule also returned an MFI at 50 nM with human PD-1 (human) [2] of 2140 MFI.

B2: ICOSL 2264 (monomeric variant ICOSL IgV N52H/N57Y/Q100R) (ligand)
chain: DTQEKEVRAMVGSDVELSCACPEGSRFDLNDVYVYWQTSESKTVVTYHIPQHSSLEYVDSRYRNRALMSPAGMLRGDFSLRLFNVTPQDEQKFHCLVLSRSLGFQEVLSVEVTLHVAANFSV
Turning to B2, the MFI was found to be 70800 with human CTLA-4 (human), 1510 with human PD-1 (human) [3] and 16100 with CD28 (human).

B3: variant CD155 IgV-Fc, S42L, S52Q, L104E (Fc fusion)
chain: WPPPGTGDVVVQAPTQVPGFLGDSVTLPCYLQVPNMEVTHVLQLTWARHGEQGSMAVFHQTQGPSYSESKRLEFVAARLGAELRNASLRMFGLRVEDEGNYTCEFVTFPQGSRSVDIWLRVL
For B3, the MFI at 100 nM with CD96 (human) worked out at 1700; in the experiment with CD226 (human), 6470.

B4: variant CD155 IgV-Fc, T45Q, S52R, L104E (Fc fusion)
chain: B3 chain with L42S, T45Q, Q52R
As for B4, the MFI at 100 nM in the experiment with CD96 (human) was determined as 3750.

B5: PD-L1 IgV-Fc I20L/I36T/N45D/I47T (Fc fusion)
chain: FTVTVPKDLYVVEYGSNMTLECKFPVEKQLDLAALTVYWEMEDKDITQFVHGEEDLKVQHSSYRQRARLLKDQLSLGNAALQITDVKLQDAGVYRCMISYGGADYKRITVKVNA
Regarding B5, in the experiment with human PD-1 (human) [4], the Fold increase over wildtype PD-L1 IgV-Fc stood at 0.6 fold and the MFI at 50 nM is 3120.

B6: Variant CD80 E35D/A71D Fc fusion (Table E14B) (Fc fusion)
chain: VIHVTKEVKEVATLSCGHNVSVEELAQTRIYWQKDKKMVLTMMSGDMNIWPEYKNRTIFDITNNLSIVILDLRPSDEGTYECVVLKYEKDAFKREHLAEVT
As for B6, in the experiment with PD-L1 (human), the MFI at 22.2 nM worked out at 13800 MFI. Also, in the experiment with CTLA-4 (human), the MFI at 66.6 nM worked out at 150000 MFI.

B7: Variant CD80 E35G/K54E/A71D/L72P Fc fusion (Fc fusion)
chain: B6 chain with D35G, K54E, L72P
With B7, in the experiment with PD-L1 (human), the MFI at 22.2 nM was 1580 MFI.

B8: variant PD-L2 IgV H15Q/Q72H/V89D Fc fusion (Fc fusion)
chain: LFTVTVPKELYIIEQGSNVTLECNFDTGSHVNLGAITASLQKVENDTSPHRERATLLEEQLPLGKASFHIPHVQVRDEGQYQCIIIYGDAWDYKYLTLKVKA
For the molecule B8, the IFN gamma levels pg/mL (MLR) in the experiment with human PD-1 (human) [1] stood at 1270 pg/mL. The molecule further showed an MFI at 50 nM with human PD-1 (human) [2] of 12600 MFI.

B9: variant PD-L1 K57R/S99G/R195G Fc fusion (Fc fusion)
chain: FTVTVPKDLYVVEYGSNMTIECKFPVEKQLDLAALIVYWEMEDKNIIQFVHGEEDLRVQHSSYRQRARLLKDQLSLGNAALQITDVKLQDAGVYRCMIGYGGADYKRITVKVNAPYNKINQRILVVDPVTSEHELTCQAEGYPKAEVIWTSSDHQVLSGKTTTTNSKREEKLFNVTSTLRINTTTNEIFYCTFRGLDPEENHTAELVIPELPLAHPPNER
In turn, B9 came in with an MFI at 20 nM in the experiment with CD80 (human) of 11000 MFI.

B10: variant PD-L1 I36T/M97L/Q155H/F193S/N201Y Fc fusion (Fc fusion)
chain: B9 chain with I36T, R57K, M97L, G99S, Q155H, F193S, G195R, N201Y
Take B10: in the experiment with CD80 (human), the MFI at 20 nM came out at 1250 MFI.

The values are drawn from patent publication US20250163127A1.
